The numbers were not newly measured in article PMC7094366, which cites them from elsewhere.

Broadly, the Kd is the constant that tells how readily two partners part at equilibrium.

In this data set the target is SARS-CoV 3C-like proteinase (Severe acute respiratory syndrome coronavirus) (UniProt P0C6X7).

Turning to “SARS-CoV 3C-like proteinase (from UniProt P0C6X7)”, the equilibrium dissociation constant (Kd) is 100 µM.
